Measurements reported in the supplement of paper PMC12783771.
± gives the standard deviation of the averaged measurements.

B1: library; a variant is named by its letters at X, in order (parent)
chain: MNIQIGELAKRTACPVVTIRFYEQEGLLPPPGRSRGNFRLYGEEHVERLQFIRHCRSLDMPLSXVRTLLSYRKRPDQDCGEVXMLLDEHXRQVESRIGALLELXHXLVELREACSGARPAQSCGILQGLSDCVCDTRGTTAHXSD

How the values were obtained:
[1] = variants of: B1; assay: sfGFP reporter fluorescence (15 h) (µM FITC); higher = higher leak; settings: library round: Round 3b; ligand: none
Method: (§1)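 Cell-free biosensing: 1 µL Echo-assembled CFE reactions with linear PbrR variant templates (5 nM) and pPbrR-sfGFP reporter, with 1 µM Pb, 30 µM Zn or no ligand; endpoint sfGFP fluorescence after 15 h at 30 °C calibrated as µM FITC. Round 3b rational combinatorial PbrR mutants; 3 biological replicates.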

[2] = variants of: B1; assay: sfGFP reporter fluorescence (15 h) (µM FITC); higher = stronger transcriptional activation; settings: library round: Round 3b
Method: as §1

Row | Variant | sfGFP reporter fluorescence [1] | sfGFP reporter fluorescence ([2]; ligand: 1 µM Pb) | sfGFP reporter fluorescence ([2]; ligand: 30 µM Zn)
1 | DNAVAR | 0.0458 ± 0.0027 | 0.0485 ± 0.0025 | 0.0579 ± 0.0046
2 | DNAVAT | 0.0419 ± 0.0015 | 0.0454 ± 0.0015 | 0.0637 ± 0.0046
3 | KIIKAT | 0.0413 ± 0.0042 | 0.17 ± 0.027 | 0.0483 ± 0.0033
4 | KNATAT | 0.0532 ± 0.0029 | 0.305 ± 0.021 | 0.514 ± 0.057
5 | KNATAP | 0.052 ± 0.0055 | 0.226 ± 0.015 | 0.311 ± 0.038
6 | KNATAR | 0.0517 ± 0.005 | 0.302 ± 0.012 | 0.406 ± 0.066
7 | KNAVHR | 0.0557 ± 0.0039 | 0.37 ± 0.021 | 0.644 ± 0.054
8 | KNAVHT | 0.0573 ± 0.0042 | 0.322 ± 0.0077 | 0.602 ± 0.057
9 | KIIVAT | 0.0506 ± 0.0022 | 0.424 ± 0.013 | 0.0534 ± 0.0041
10 | KIITHT | 0.0492 ± 0.0029 | 0.471 ± 0.031 | 0.0728 ± 0.0057
11 | KIITHR | 0.0506 ± 0.0028 | 0.485 ± 0.067 | 0.0734 ± 0.0022
12 | DNIKHP | 0.043 ± 0.0052 | 0.0535 ± 0.0032 | 0.281 ± 0.018
13 | KIIVHT | 0.053 ± 0.0034 | 0.673 ± 0.034 | 0.101 ± 0.015
14 | DIIVET | 0.0433 ± 0.0015 | 0.0933 ± 0.0025 | 0.0469 ± 0.0019
15 | DIIVER | 0.0467 ± 0.0027 | 0.0917 ± 0.0042 | 0.047 ± 0.0038
16 | KIAVHR | 0.0703 ± 0.001 | 1.42 ± 0.17 | 0.0998 ± 0.0092
17 | KIAVHT | 0.0616 ± 0.0046 | 0.924 ± 0.066 | 0.0797 ± 0.0069
18 | KIAVHP | 0.0656 ± 0.0055 | 1.12 ± 0.13 | 0.0894 ± 0.011
19 | DIAVER | 0.0436 ± 0.004 | 0.0866 ± 0.0039 | 0.0484 ± 0.0041
20 | DIAVEP | 0.0409 ± 0.0007 | 0.0827 ± 0.0059 | 0.04514 ± 0.00039
21 | DIAVET | 0.0432 ± 0.0019 | 0.07 ± 0.0044 | 0.0437 ± 0.002
22 | DNATAR | 0.0439 ± 0.0034 | 0.0477 ± 0.0023 | 0.0627 ± 0.0048
23 | DNATAT | 0.0419 ± 0.0058 | 0.0459 ± 0.0022 | 0.059 ± 0.0073

Row | Variant | sfGFP reporter fluorescence [1] | sfGFP reporter fluorescence ([2]; ligand: 1 µM Pb) | sfGFP reporter fluorescence ([2]; ligand: 30 µM Zn)
24 | DNATET | 0.0419 ± 0.00051 | 0.0463 ± 0.0026 | 0.0623 ± 0.0031
25 | DNATER | 0.0446 ± 0.0017 | 0.0458 ± 0.0017 | 0.0522 ± 0.0022
26 | KIIKET | 0.0423 ± 0.0019 | 0.128 ± 0.0066 | 0.0466 ± 0.001
27 | KIIKER | 0.0441 ± 0.0037 | 0.149 ± 0.017 | 0.0485 ± 0.0035
28 | KNAKAR | 0.0687 ± 0.0037 | 0.394 ± 0.045 | 0.754 ± 0.11
29 | KNAKAT | 0.0671 ± 0.0058 | 0.353 ± 0.02 | 0.795 ± 0.18
30 | KIITER | 0.0454 ± 0.0026 | 0.266 ± 0.0032 | 0.0497 ± 0.0018
31 | KIITEP | 0.0456 ± 0.0027 | 0.301 ± 0.011 | 0.0508 ± 0.0019
32 | KIITET | 0.0468 ± 0.0019 | 0.265 ± 0.01 | 0.0513 ± 0.0034
33 | KNATHT | 0.0681 ± 0.0016 | 0.443 ± 0.015 | 0.764 ± 0.13
34 | KNATHR | 0.0571 ± 0.0019 | 0.412 ± 0.041 | 0.602 ± 0.08
35 | DIIVAT | 0.0468 ± 0.0037 | 0.131 ± 0.0097 | 0.0469 ± 0.005
36 | KNIVAT | 0.092 ± 0.0023 | 0.52 ± 0.048 | 1.42 ± 0.2
37 | KNAVEP | 0.0529 ± 0.0031 | 0.235 ± 0.021 | 0.211 ± 0.024
38 | KNAVER | 0.0532 ± 0.0015 | 0.334 ± 0.025 | 0.313 ± 0.04
39 | KNAVET | 0.0522 ± 0.0014 | 0.261 ± 0.01 | 0.223 ± 0.016
40 | KIAVER | 0.0626 ± 0.0036 | 0.946 ± 0.087 | 0.0548 ± 0.002
41 | KIAVEP | 0.0654 ± 0.0022 | 0.997 ± 0.055 | 0.0578 ± 0.0022
42 | KIAVET | 0.0672 ± 0.0059 | 1.21 ± 0.013 | 0.0607 ± 0.0027
43 | KNATEP | 0.0501 ± 0.0039 | 0.279 ± 0.052 | 0.261 ± 0.015
44 | KNATET | 0.055 ± 0.0007 | 0.324 ± 0.017 | 0.34 ± 0.031
45 | KNATER | 0.0529 ± 0.0011 | 0.343 ± 0.014 | 0.336 ± 0.035
